Here are results for two molecules from publication PMC6703689, “The heterogeneous nuclear ribonucleoprotein hnRNPM inhibits RNA virus-triggered innate immunity by antagonizing RNA sensing of RIG-I-like receptors” (PLoS Pathogens, 2019).

Data set [1] concerns GST-MDA5(280-1025). Description: MST. The settings on record: MST: PBS with 100 mM Tris-HCl pH 8.8, 20 nM Cy5-dsRNA, 25 C, GST as negative control, pull-down: HEK293 lysate, biotinylated RNA, streptavidin beads.
In data set [2] the test system is GST-hnRNPM (human). Description: MST. The following applies: MST: PBS with 100 mM Tris-HCl pH 8.8, 20 nM Cy5-dsRNA, 25 C, GST as negative control; pull-down: HEK293 lysate, biotinylated RNA, streptavidin beads.
Data set [3] concerns Flag-RIG-I. Nature of the data set: MST. The following applies: MST: PBS with 100 mM Tris-HCl pH 8.8, 20 nM Cy5-dsRNA, 25 C, GST as negative control, pull-down: HEK293 lysate, biotinylated RNA, streptavidin beads.
Data set [4] concerns the target T1, recombinant MDA5 (280-1,025) (pGEX6p-1-GST-MDA5 (280-1025)) (human, UniProt Q9BYX4 280-1025).
T1 construct: MDA5, human, residues 280-1025; cloned in pGEX-6p-1; No cleavage of GST is told; the MST methods call the same preparation GST-MDA5; source: E. coli BL21, purified (GST resins, eluted with reduced glutathione)
T1 sequence (looked up): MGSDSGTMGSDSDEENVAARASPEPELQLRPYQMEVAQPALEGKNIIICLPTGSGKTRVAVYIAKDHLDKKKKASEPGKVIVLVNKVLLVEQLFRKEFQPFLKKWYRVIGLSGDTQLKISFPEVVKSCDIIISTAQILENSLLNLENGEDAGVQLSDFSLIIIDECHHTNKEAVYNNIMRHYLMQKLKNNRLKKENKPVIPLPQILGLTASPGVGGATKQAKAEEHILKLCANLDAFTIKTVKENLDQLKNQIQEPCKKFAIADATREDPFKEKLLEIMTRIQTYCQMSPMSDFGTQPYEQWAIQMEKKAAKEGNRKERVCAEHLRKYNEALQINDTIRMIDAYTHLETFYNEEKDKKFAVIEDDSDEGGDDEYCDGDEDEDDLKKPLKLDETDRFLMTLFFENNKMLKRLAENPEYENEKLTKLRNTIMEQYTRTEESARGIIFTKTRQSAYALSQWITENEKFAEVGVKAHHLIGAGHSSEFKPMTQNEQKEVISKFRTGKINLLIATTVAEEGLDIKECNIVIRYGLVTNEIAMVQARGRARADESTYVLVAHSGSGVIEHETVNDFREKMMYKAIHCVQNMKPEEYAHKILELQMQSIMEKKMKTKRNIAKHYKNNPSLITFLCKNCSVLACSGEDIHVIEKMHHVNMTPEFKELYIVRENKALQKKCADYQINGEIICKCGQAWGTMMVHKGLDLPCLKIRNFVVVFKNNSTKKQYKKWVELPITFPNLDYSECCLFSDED
Description: pull-down; purified recombinant proteins incubated in PBS with RNase I at 4°C for 3 hours, then immunoprecipitated with anti-MDA5 and protein G beads or with anti-Flag affinity gel at 4°C for 2 hours; immunoblots. The following applies: both partners purified. A general note: Immunoblotting shows a protein as a band on a membrane.

In data set [5] the target is T2, Flag-RIG-I, purified from transfected HEK293 cells (human, UniProt O95786 1-925).
T2 construct: RIG-I, human; Flag-RIG-I plasmid; also called Flag-tagged RIG-I; recombinant RIG-I
T2 sequence (looked up): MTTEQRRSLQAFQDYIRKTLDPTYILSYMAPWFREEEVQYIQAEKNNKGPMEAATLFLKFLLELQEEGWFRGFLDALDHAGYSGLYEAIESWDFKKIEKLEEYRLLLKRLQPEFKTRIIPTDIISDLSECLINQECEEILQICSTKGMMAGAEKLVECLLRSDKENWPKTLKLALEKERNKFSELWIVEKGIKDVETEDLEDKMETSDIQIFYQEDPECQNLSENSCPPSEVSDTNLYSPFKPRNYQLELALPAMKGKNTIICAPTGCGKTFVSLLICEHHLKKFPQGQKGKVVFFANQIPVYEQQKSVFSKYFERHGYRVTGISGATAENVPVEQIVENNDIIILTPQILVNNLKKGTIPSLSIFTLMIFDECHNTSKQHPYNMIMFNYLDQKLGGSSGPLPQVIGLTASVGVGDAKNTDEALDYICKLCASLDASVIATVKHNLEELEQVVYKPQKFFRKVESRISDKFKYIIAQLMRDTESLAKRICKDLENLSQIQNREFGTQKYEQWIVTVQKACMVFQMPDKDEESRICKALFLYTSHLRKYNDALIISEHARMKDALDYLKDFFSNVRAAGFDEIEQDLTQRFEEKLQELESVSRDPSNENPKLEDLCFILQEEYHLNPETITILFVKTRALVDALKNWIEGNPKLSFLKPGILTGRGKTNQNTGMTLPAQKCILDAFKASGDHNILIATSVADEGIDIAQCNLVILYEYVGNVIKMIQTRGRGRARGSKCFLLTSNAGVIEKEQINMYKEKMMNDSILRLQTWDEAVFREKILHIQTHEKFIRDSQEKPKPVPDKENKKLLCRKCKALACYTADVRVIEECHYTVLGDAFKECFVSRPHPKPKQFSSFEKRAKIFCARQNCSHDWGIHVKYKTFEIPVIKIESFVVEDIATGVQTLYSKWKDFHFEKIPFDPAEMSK
The data set is described as above. The settings on record: both partners purified.

Broadly, the Kd is the free concentration of one partner at which half of the binding sites on the other are occupied at equilibrium, for simple one-to-one binding. Read a high Kd as a looser complex.

Consider 25 bp dsRNA, for which the Kd in data set [1] was 131 nM; in data set [2] it was 22.1 nM; in data set [3] it was 69 nM. For the same molecule, the binding signal (fold decrease of affinity) in data set [1] (recombinant hnRNPM present) was determined as 3; in data set [3] (recombinant hnRNPM present), 10.

B1: recombinant hnRNPM (pGEX6p-1-GST-hnRNPM) (natural protein, human, UniProt P52272 1-730, looked up)
chain: MAAGVEAAAEVAATEIKMEEESGAPGVPSGNGAPGPKGEGERPAQNEKRKEKNIKRGGNRFEPYANPTKRYRAFITNIPFDVKWQSLKDLVKEKVGEVTYVELLMDAEGKSRGCAVVEFKMEESMKKAAEVLNKHSLSGRPLKVKEDPDGEHARRAMQKVMATTGGMGMGPGGPGMITIPPSILNNPNIPNEIIHALQAGRLGSTVFVANLDYKVGWKKLKEVFSMAGVVVRADILEDKDGKSRGIGTVTFEQSIEAVQAISMFNGQLLFDRPMHVKMDERALPKGDFFPPERPQQLPHGLGGIGMGLGPGGQPIDANHLNKGIGMGNIGPAGMGMEGIGFGINKMGGMEGPFGGGMENMGRFGSGMNMGRINEILSNALKRGEIIAKQGGGGGGGSVPGIERMGPGIDRLGGAGMERMGAGLGHGMDRVGSEIERMGLVMDRMGSVERMGSGIERMGPLGLDHMASSIERMGQTMERIGSGVERMGAGMGFGLERMAAPIDRVGQTIERMGSGVERMGPAIERMGLSMERMVPAGMGAGLERMGPVMDRMATGLERMGANNLERMGLERMGANSLERMGLERMGANSLERMGPAMGPALGAGIERMGLAMGGGGGASFDRAIEMERGNFGGSFAGSFGGAGGHAPGVARKACQIFVRNLPFDFTWKMLKDKFNECGHVLYADIKMENGKSKGCGVVKFESPEVAERACRMMNGMKLSGREIDVRIDRNA
notes: hnRNPM, human; cloned in pGEX-6p-1; No cleavage of GST is told; the MST methods call the same preparation GST-hnRNPM, so the tag was probably still on the protein in the pull-down; source: E. coli BL21, purified (GST resins, eluted with reduced glutathione)
For B1, the binding result in data set [4] and in data set [5] was “binds” throughout.
